Legend:
Type in all cases: in vivo
[1] = tested on: db/db mice; assay: Dose response of NT-4/5 on food intake of db/db mice (Example 2)
Protocol: (§1) Db/db mice maintained as described in Example 1 were divided into five groups (groups 1-5). Group 1 (7 mice) were administered with vehicle (PBS). Group 2 (7 mice), group 3 (8 mice), group 4 (8 mice), group 5 (8 mice) were each administered with NT-4/5 at the doses of 2 mg/kg, 5 mg/kg, 10 mg/kg, and 20 mg/kg, respectively. Both the vehicle and NT-4/5 were administered to each group of the mice subcutaneously once daily for five days. One day before beginning the treatment (T0), blood samples were collected from the mice as described previously for the determination of baseline levels of serum biomarkers (glucose, triglyceride, and cholesterol). Similarly, at day 6 (T6), blood samples were collected for the determination of serum biomarker levels. The blood samples were treated in the same manner as described in Example 1.
[…] Individual body weights were also measured daily from 6 days before the treatment (T-5) to day 7 (T7).

[2] = tested on: db/db mice; assay: Dose response of NT-4/5 on body weight and percentage change in body weight of db/db mice (Example 2, Tables 16, 17); set-up: body weight: unit not given here; details: for body weight / percentage change in body weight: db/db mice, 12 week, female, mean
Protocol: as §1
From two days before the treatment (T-1) to day 6 (T6), individual food intakes of the mice were measured daily. Individual body weights were also measured daily from 6 days before the treatment (T-5) to day 7 (T7).

[3] = tested on: NONcNZO-10 polygenic obese and diabetic mice; assay: Non-fasting blood glucose and HbA1c in polygenic obese and diabetic mice NONcNZO-10 (Example 3); details: 2 or 10 mg/kg s.c. daily; dose dependent
Description: (§2) Test animals: 19 male NONcNZO-10 polygenic obese and diabetic mice from Jackson Laboratory (See Leiter et al., Diabetes 53 (Suppl. 1): S4-S11, 2004) at 9 weeks of age weighing in the range of 28-35 g were used in this study.
(§3) Administration of NT-4/5: NT-4/5 was obtained from Genentech Inc.
(§4) The mice were divided into 3 groups of equivalent body weight and baseline glucose distribution (6-7 mice per group). […] Seven days before starting the treatment (day −7), blood samples were collected from the mice as described previously for the determination of baseline levels of blood glucose and triglyceride. After the treatment started, blood samples were collected weekly to determine glucose and triglyceride levels as described in previous examples. Body weight and food intake were monitored 5 days a week through out the entire study.

[4] = tested on: NONcNZO-10 polygenic obese and diabetic mice; assay: Body weight and food intake in NONcNZO-10 mice (Example 3)
Description: as §2, §3, §4

[5] = tested on: DIO mice; assay: Glucose, triglyceride and oral glucose tolerance in DIO mice (Example 5); details: 2 and 10 mg/kg
Protocol: Test animals: Mice with diet induced obesity (DIO) from Jackson Laboratory were used in this study. El-Haschimi, J. Clin. Invest. 105:1827-1832 (2000); Steppan, Nature 409:307-312 (2001). 23 male C57BL/6J mice were weaned at 4 weeks of age. Immediately after weaning they were put on about 58% high fat diet ([…], Research Diet) through out the study. The DIO mice at 13 weeks of age weighing in the range of 28-40 g were used in this study. Older mice at 22-24 weeks of age were also used.
Administration of NT-4/5: NT-4/5 used in this study was obtained from Genentech. The mice were divided into 3 groups of equivalent body weight and baseline blood glucose distribution (7-8 mice per group). Each group received from day 1 to day 5, from day 8 to day 12, from day 15 to 16 a daily subcutaneous dose of either vehicle, 2 mg/kg or 10 mg/kg of NT-4/5, respectively. Five days prior to the treatment started (day −5), a baseline blood samples were collected for measuring glucose and triglyceride. Subsequent to the treatment started (day 1), blood glucose and triglyceride were measured once a week. Body weight, food intake were monitored 5 days per week through out the entire study. From days 57-59, the DIO mice received a daily injection of NT-4/5 at 2 or 10 mg/kg respectively. They were fasted overnight (for 16 hours) before fasting glucose levels were measured and the oral glucose tolerance test was conducted with a load of 2 grams of glucose/kg of body weight.

[6] = 2 or 10 mg/kg s.c. daily, dose dependent
[7] = DIO mice 12-16 weeks of age, not diabetic
[8] = DIO mice 22-24 weeks of age, overt diabetes

B1: NT-4/5: mature human neurotrophin-4/5 (SEQ ID NO:1), obtained from Genentech or produced in E. coli (protein, listed as Homo sapiens)
chain: GVSETAPASRRGELAVCDAVSGWVTDRRTAVDLRGREVEVLGEVPAAGGSPLRQYFFETRCKADNAEEGGPGAGGGGCRGVDRRHWVSECKAKQSYVRALTADAQGRVGWRWIRIDTACVCTLLSRTGRA
[1]; 2, 5, 10 and 20 mg/kg
  food intake as compared to vehicle: significantly decreased food intake
[1]; Day 0, 2 mg/kg s.c. daily
  food intake: 7.79 g
[1]; Day 0, 5 mg/kg s.c. daily
  food intake: 7.26 g
[1]; Day 0, 10 mg/kg s.c. daily
  food intake: 7.48 g
[1]; Day 0, 20 mg/kg s.c. daily
  food intake: 7.46 g
[1]; Day 1, 2 mg/kg s.c. daily
  food intake: 5.20 g
[1]; Day 1, 5 mg/kg s.c. daily
  food intake: 4.55 g
[1]; Day 1, 10 mg/kg s.c. daily
  food intake: 4.13 g
[1]; Day 1, 20 mg/kg s.c. daily
  food intake: 4.11 g
[1]; Day 2, 2 mg/kg s.c. daily
  food intake: 5.87 g
[1]; Day 2, 5 mg/kg s.c. daily
  food intake: 4.86 g
[1]; Day 2, 10 mg/kg s.c. daily
  food intake: 5.18 g
[1]; Day 2, 20 mg/kg s.c. daily
  food intake: 4.66 g
[1]; Day 3, 2 mg/kg s.c. daily
  food intake: 3.89 g
[1]; Day 3, 5 mg/kg s.c. daily
  food intake: 3.99 g
[1]; Day 3, 10 mg/kg s.c. daily
  food intake: 3.85 g
[1]; Day 3, 20 mg/kg s.c. daily
  food intake: 3.39 g
[1]; Day 4, 2 mg/kg s.c. daily
  food intake: 4.79 g
[1]; Day 4, 5 mg/kg s.c. daily
  food intake: 3.69 g
[1]; Day 4, 10 mg/kg s.c. daily
  food intake: 4.00 g
[1]; Day 4, 20 mg/kg s.c. daily
  food intake: 3.40 g
[1]; Day 5, 2 mg/kg s.c. daily
  food intake: 4.19 g
[1]; Day 5, 5 mg/kg s.c. daily
  food intake: 3.79 g
[1]; Day 5, 10 mg/kg s.c. daily
  food intake: 3.60 g
[1]; Day 5, 20 mg/kg s.c. daily
  food intake: 3.06 g
[1]; Day 6, 2 mg/kg s.c. daily
  food intake: 3.99 g
[1]; Day 6, 5 mg/kg s.c. daily
  food intake: 3.00 g
[1]; Day 6, 10 mg/kg s.c. daily
  food intake: 2.56 g
[1]; Day 6, 20 mg/kg s.c. daily
  food intake: 1.71 g
[1]; Day 7, 2 mg/kg s.c. daily
  food intake: 4.13 g
[1]; Day 7, 5 mg/kg s.c. daily
  food intake: 3.48 g
[1]; Day 7, 10 mg/kg s.c. daily
  food intake: 3.21 g
[1]; Day 7, 20 mg/kg s.c. daily
  food intake: 2.03 g
[2]; 2, 5, 10 and 20 mg/kg
  body weight as compared to vehicle: significantly decreased body weight
[2]; NT-4/5 2 mg/kg, Day 1
  body weight: 39.66
  percentage change in body weight: 101.83%
[2]; NT-4/5 2 mg/kg, Day 3
  body weight: 38.96
  percentage change in body weight: 98.27%
[2]; NT-4/5 2 mg/kg, Day 5
  body weight: 38.17
  percentage change in body weight: 96.24%
[2]; NT-4/5 2 mg/kg, Day 7
  body weight: 37.50
  percentage change in body weight: 94.57%
[2]; NT-4/5 2 mg/kg, Day −1
  body weight: 38.94
[2]; NT-4/5 5 mg/kg, Day 1
  body weight: 41.03
  percentage change in body weight: 101.51%
[2]; NT-4/5 5 mg/kg, Day 3
  body weight: 39.26
  percentage change in body weight: 95.71%
[2]; NT-4/5 5 mg/kg, Day 5
  body weight: 38.48
  percentage change in body weight: 93.79%
[2]; NT-4/5 5 mg/kg, Day 7
  body weight: 37.00
  percentage change in body weight: 90.15%
[2]; NT-4/5 5 mg/kg, Day −1
  body weight: 40.41
[2]; NT-4/5 10 mg/kg, Day 1
  body weight: 39.99
  percentage change in body weight: 101.07%
[2]; NT-4/5 10 mg/kg, Day 3
  body weight: 38.49
  percentage change in body weight: 96.28%
[2]; NT-4/5 10 mg/kg, Day 5
  body weight: 37.35
  percentage change in body weight: 93.43%
[2]; NT-4/5 10 mg/kg, Day 7
  body weight: 36.04
  percentage change in body weight: 90.14%
[2]; NT-4/5 10 mg/kg, Day −1
  body weight: 39.58
[2]; NT-4/5 20 mg/kg, Day 1
  body weight: 40.73
  percentage change in body weight: 100.31%
[2]; NT-4/5 20 mg/kg, Day 3
  body weight: 39.10
  percentage change in body weight: 96.01%
[2]; NT-4/5 20 mg/kg, Day 5
  body weight: 37.71
  percentage change in body weight: 92.60%
[2]; NT-4/5 20 mg/kg, Day 7
  body weight: 36.00
  percentage change in body weight: 88.38%
[2]; NT-4/5 20 mg/kg, Day −1
  body weight: 40.60
[3]
  long term glycemic control, HbA1c levels: improved long term glycemic control
  non-fasting blood glucose level: reduced non-fasting blood glucose level
[4]; [6]
  body weight: reduced body weight
  food intake: reduced
[4]; 30 days after the treatment was terminated
  rebound hyperphagia or rebound body weight gain: No rebound hyperphagia or rebound body weight gain/overshoot was observed
[5]; [7]
  non-fasting glucose levels: did not affect
  non-fasting triglyceride levels: did not affect
[5]; [8]
  fasting glucose level: significantly reduced fasting glucose level
  glucose tolerance: improved glucose tolerance

— patent US20090203610A1, “METHODS OF TREATING OBESITY OR DIABETES USING NT-4/5” (RINAT NEUROSCIENCE CORPORATION, priority 2004, published 2009)
